T1: Cyno DLL3-His (cynomolgus monkey, UniProt Q9NYJ7 27-492 (human entry))
T1 construct: also called cy DLL3; recombinant cyno DLL3-ECD
T1 chain: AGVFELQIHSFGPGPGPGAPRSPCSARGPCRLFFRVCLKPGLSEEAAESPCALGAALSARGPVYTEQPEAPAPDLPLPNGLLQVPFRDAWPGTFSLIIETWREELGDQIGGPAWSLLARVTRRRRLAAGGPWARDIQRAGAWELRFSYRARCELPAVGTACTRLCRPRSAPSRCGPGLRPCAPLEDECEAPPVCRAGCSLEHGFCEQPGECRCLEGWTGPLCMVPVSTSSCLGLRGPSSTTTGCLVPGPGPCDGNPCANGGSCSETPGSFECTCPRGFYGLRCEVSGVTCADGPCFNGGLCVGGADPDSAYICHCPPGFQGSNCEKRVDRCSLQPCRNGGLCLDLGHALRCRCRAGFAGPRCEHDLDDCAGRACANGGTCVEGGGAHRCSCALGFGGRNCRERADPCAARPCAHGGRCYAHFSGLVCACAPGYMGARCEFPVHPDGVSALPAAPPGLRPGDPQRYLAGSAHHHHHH

T2: human DLL3 (endogenous, on SCLC cell lines NCI-H82 and SHP77 and in SCLC tissue) (human, UniProt Q9NYJ7 27-618)
T2 sequence (looked up): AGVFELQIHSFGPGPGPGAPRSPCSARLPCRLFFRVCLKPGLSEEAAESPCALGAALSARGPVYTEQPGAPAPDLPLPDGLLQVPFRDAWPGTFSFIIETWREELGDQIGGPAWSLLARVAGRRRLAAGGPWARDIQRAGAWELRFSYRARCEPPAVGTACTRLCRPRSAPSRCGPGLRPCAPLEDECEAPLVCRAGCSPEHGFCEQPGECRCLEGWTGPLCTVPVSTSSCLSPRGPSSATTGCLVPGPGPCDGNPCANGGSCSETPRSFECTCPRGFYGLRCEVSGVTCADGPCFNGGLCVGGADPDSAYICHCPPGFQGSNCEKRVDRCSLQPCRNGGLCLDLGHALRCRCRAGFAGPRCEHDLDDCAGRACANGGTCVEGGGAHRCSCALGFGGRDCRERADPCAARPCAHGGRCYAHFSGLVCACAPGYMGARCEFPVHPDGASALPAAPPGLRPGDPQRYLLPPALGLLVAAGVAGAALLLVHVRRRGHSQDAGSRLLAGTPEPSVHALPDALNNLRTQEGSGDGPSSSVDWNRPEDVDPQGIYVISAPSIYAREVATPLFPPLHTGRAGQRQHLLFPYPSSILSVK

B1: DLL3#3/CD3#1 (bispecific antibody, human IgG1, kappa, lambda, L234A L235A)
chain 1: DIQMTQSPSAMSASVGDRVTITCRASQGISNYLVWFQQKPGKAPKRLIYAVSSLYSGVPSRFSGSGSGTEFTLTISSLQPEDFATYYCLQHDSYPYTFGQGTKLEIKRTVAAPSVFIFPPSDEQLKSGTASVVCLLNNFYPREAKVQWKVDNALQSGNSQESVTEQDSKDSTYSLSSTLTLSKADYEKHKVYACEVTHQGLSSPVTKSFNRGECGGGGSEGKSSGSGSESKSTEGKSSGSGSESKSTGGGGSQVQLVQSGAEVKKPGASVKVSCKASGYTFTSYYVHWVRQAPGQGLEWMVIINPGGGTTSYAQKFLGRVTMTRDTSTNTVYMELKSLRSEDTAVYYCARGEAVTGNYFYYGMDVWGQGTTVTVSSASTKGPSVFPLAPSSKSTSGGTAALGCLVKDYFPEPVTVSWNSGALTSGVHTFPAVLQSSGLYSLSSVVTVPSSSLGTQTYICNVNHKPSNTKVDKRVEPKSCDKTHTCPPCPAPEAAGGPSVFLFPPKPKDTLMISRTPEVTCVVVDVSHEDPEVKFNWYVDGVEVHNAKTKPREEQYNSTYRVVSVLTVLHQDWLNGKEYKCKVSNKALPAPIEKTISKAKGQPREPQVYTLPPSREEMTKNQVSLWCLVKGFYPSDIAVEWESNGQPENNYKTTPPVLDSDGSFFLYSKLTVDKSRWQQGNVFSCSVMHEALHNHYTQKSLSLSPG
chain 2: EAVVTQEPSLTVSPGGTVTLTCRSSTGAVTTSNYANWVQEKPGQLPRGLIGGTNKRAPWVPARFSGSLLGGKAALTLSGAQPEDEAEYFCALWYSNLWVFGGGTKLTVLGQPKAAPSVTLFPPSSEELQANKATLVCLISDFYPGAVKVAWKADGSPVNTGVETTTPSKQSNNKYAASSYLSLTPEQWKSHRSYSCQVTHEGSTVEKTVAPAECSGGGGSEGKSSGSGSESKSTEGKSSGSGSESKSTGGGGSEVQLVESGGGLVQPGGSLKLSCAASGFTFNTYAMNWVRQAPGKGLEWVARIRSKYNNYATYYADSVKDRFTISRDDSKNTAYLQMNNLKTEDTAVYYCVRHGNFGNSYVSWFAYWGQGTLVTVSAASTKGPSVFPLAPSSKSTSGGTAALGCLVKDYFPEPVTVSWNSGALTSGVHTFPAVLQSSGLYSLSSVVTVPSSSLGTQTYICNVNHKPSNTKVDKRVEPKSCDKTHTCPPCPAPEAAGGPSVFLFPPKPKDTLMISRTPEVTCVVVDVSHEDPEVKFNWYVDGVEVHNAKTKPREEQYNSTYRVVSVLTVLHQDWLNGKEYKCKVSNKALPAPIEKTISKAKGQPREPQVYTLPPSREEMTKNQVSLSCAVKGFYPSDIAVEWESNGQPENNYKTTPPVLDSDGSFFLVSKLTVDKSRWQQGNVFSCSVMHEALHNRFTQKSLSLSPG
notes: Heterodimer of one DLL3 chain and one CD3 chain (scFab-Fc, knob-in-hole)
B2: DLL3#18/CD3#1 (bispecific antibody, human IgG1, kappa, lambda, L234A L235A)
chain 1: DIQMTQSPASLAASVGETVTITCRASENIYYSLAWYQQKQGKSPQLLIYNANSLEDGVPSRFSGSGSGTQYSMKINNMQPEDTATYFCKQAYDVPLTFGAGTKLELKRTVAAPSVFIFPPSDEQLKSGTASVVCLLNNFYPREAKVQWKVDNALQSGNSQESVTEQDSKDSTYSLSSTLTLSKADYEKHKVYACEVTHQGLSSPVTKSFNRGECGGGGSEGKSSGSGSESKSTEGKSSGSGSESKSTGGGGSQVQLQQSGPDLVKPGASVKMSCEASGYTFTAYFIHWVKQKPGQGLEWIGYIDPFNDDTNYNVKFKGKATLTSDTSSSIAYMELSSLTSEDSSFYYCARGTSATLDYWGHGTTLTVSSASTKGPSVFPLAPSSKSTSGGTAALGCLVKDYFPEPVTVSWNSGALTSGVHTFPAVLQSSGLYSLSSVVTVPSSSLGTQTYICNVNHKPSNTKVDKRVEPKSCDKTHTCPPCPAPEAAGGPSVFLFPPKPKDTLMISRTPEVTCVVVDVSHEDPEVKFNWYVDGVEVHNAKTKPREEQYNSTYRVVSVLTVLHQDWLNGKEYKCKVSNKALPAPIEKTISKAKGQPREPQVYTLPPSREEMTKNQVSLWCLVKGFYPSDIAVEWESNGQPENNYKTTPPVLDSDGSFFLYSKLTVDKSRWQQGNVFSCSVMHEALHNHYTQKSLSLSPG
chain 2: B1 chain 2
notes: as for B1
B3: DLL3#13/CD3#1 (bispecific antibody, human IgG1, kappa, lambda, L234A L235A)
chain 1: DVLMTQTPLSLPVSLGDQAAISCRSSQSIVHSNGNTYLEWYLQKPGQSPKVLIYKVSNRFSGVPDRFSGSGSGTDFTLKISRVEAEDLGVYYCFQGSHVPYTFGGGTKLEIKRTVAAPSVFIFPPSDEQLKSGTASVVCLLNNFYPREAKVQWKVDNALQSGNSQESVTEQDSKDSTYSLSSTLTLSKADYEKHKVYACEVTHQGLSSPVTKSFNRGECGGGGSEGKSSGSGSESKSTEGKSSGSGSESKSTGGGGSQIQLVQSGPELKKPGETVKISCKASGYTFTNYGVTWVKQAPGKGLKWMGWINTYSGAPTYADDFNGRFALSLETSASTAYLQINNLKNEDTATYFCARLDDYDLYYFDYWGQGTALTVSSASTKGPSVFPLAPSSKSTSGGTAALGCLVKDYFPEPVTVSWNSGALTSGVHTFPAVLQSSGLYSLSSVVTVPSSSLGTQTYICNVNHKPSNTKVDKRVEPKSCDKTHTCPPCPAPEAAGGPSVFLFPPKPKDTLMISRTPEVTCVVVDVSHEDPEVKFNWYVDGVEVHNAKTKPREEQYNSTYRVVSVLTVLHQDWLNGKEYKCKVSNKALPAPIEKTISKAKGQPREPQVYTLPPSREEMTKNQVSLWCLVKGFYPSDIAVEWESNGQPENNYKTTPPVLDSDGSFFLYSKLTVDKSRWQQGNVFSCSVMHEALHNHYTQKSLSLSPG
chain 2: B1 chain 2
notes: as for B1

Columns and labels:
[1] = target: T1, Cyno DLL3-His; test: SPR; ratio of the KD values for human and cyno DLL3
Protocol: (§1) The binding affinity of purified DLL3/CD3 bispecific constructs for recombinant human and cyno DLL3-ECD and Fc-fusion proteins of human and cyno CD3 εγ subunits was determined by Surface Plasmon Resonance (SPR), using a ProteOn XPR36 instrument (Bio-Rad). The running buffer and all dilutions (except where stated) were done in PBS-T-EDTA. The GLM sensor chip (Bio-Rad) was normalized and pre-conditioned as per the manufacturer's recommendations. The sensor chip was activated with equal mixture of EDC/s-NHS in the horizontal direction for 300 sec at a flow rate of 30 ul/min and immobilized with protein A/G (20 ug/ml in 10 mM acetate pH 4.5) in the horizontal direction for 300 sec at a flowrate of 30 ul/min resulting in ˜5000 RU of protein A/G on the surface. The sensor chip was deactivated with 1M ethanolamine HCl in the horizontal direction for 300 sec at a flowrate of 30 μl/min.
(§2) For binding kinetic determination to DLL3, bispecific molecules were captured individually on the protein A/G surface vertically for 250 sec at a flowrate of 25 μl/min. The baseline was stabilized by injecting PBS-T-EDTA for 60 sec at a flowrate of 40 μl/min horizontally. The analyte (hu DLL3 or cy DLL3) was injected horizontally over the captured antibody for 600 sec at a flowrate of 40 μl/min and a dissociation for 2700 sec.
(§3) The inter spot (interactions with sensor surface) and blank (PBS-T-EDTA) were subtracted from the raw data.

[2] = target: T2, human DLL3 (endogenous, on SCLC cell …); test: cell-based or functional assay
[3] = target: T3, chicken egg white lysozyme (chicken, UniProt P00698 19-147); test: SPR (Biacore T200), lysozyme coupled to CM5 chip, non-specific binding assay
T3 construct: also called Lysozyme (positive)
Protocol: The experiment was performed on a Biacore T200. The dilution, surface preparation, and binding experiments were performed at 25° C. in 1×HBS-EP buffer prepared from 10× HBS-EP. The flow rate for both the immobilization protocol and binding experiment was at 5 μL/min.
To prepare the surface for the non-specific binding experiment, chicken egg white lysozyme and trypsin inhibitor from glycine max soybean were coupled manually to a series S CM5 chip with the surface density of 3000-5000 RU using the amine coupling kit according to the manufacture instructions.
Samples were prepared at 1 μM in 1×HBS-EP buffer. The samples were injected over activated surfaces with a 10 min association and 10 min dissociation. The data was collected using Biacore T200 Control Software version 2.0.1 and analyzed using Biacore T200 Evaluation Software version 3.0.

[4] = target: T2, human DLL3 (endogenous, on SCLC cell …); test: cell-based or functional assay; remark: listed apart in the source
[5] = target: T1, Cyno DLL3-His; test: SPR (ProteOn XPR36), bispecific captured on protein A/G, DLL3 as analyte, Example 4A
Protocol: as §1, §2, §3

[6] = target: T4, Human CD3 E+G HuFc-6xHis (human); test: SPR (ProteOn XPR36), CD3εγ-Fc amine-coupled, bispecific as analyte, equilibrium fit, Example 4A
T4 construct: also called hu CD3εγ-Fc
Protocol: as §1
For binding kinetic determination to CD3, hu CD3εγ-Fc and cy CD3εγ-Fc (dissolved in pH 4.5 acetate) was immobilized directly onto the sensor surface through amine coupling for 140 sec at a flowrate of 30 μl/min vertically. The baseline was stabilized by injecting PBS-T-EDTA for 60 sec at a flowrate of 40 μl/min horizontally. The analyte (the bispecific molecule) was injected horizontally over the captured CD3εγ-Fc construct for 600 sec at a flowrate of 40 μl/min and a dissociation for 600 sec.
as §3

[7] = target: T2, human DLL3 (endogenous, on SCLC cell …); test: flow cytometry titration on NCI-H82 cells, PE anti-human secondary, x-fold over background
Text: Cells (T cells or human SCLC cells) were stained with increasing concentrations of two-step purified DLL3/CD3 binding proteins with increasing concentrations in FACS buffer (PBS/0.5% BSA/0.05% sodium azide). Bound molecules were detected with PE-conjugated anti-human secondary antibody (Sigma-Aldrich, #P8047).

T3 sequence (P00698 19-147): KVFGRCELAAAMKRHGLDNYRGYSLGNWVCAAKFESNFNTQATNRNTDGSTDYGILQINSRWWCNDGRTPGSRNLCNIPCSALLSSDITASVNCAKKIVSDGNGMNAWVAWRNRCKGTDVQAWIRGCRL
T4 sequence (chain, as listed by the source limits assumed): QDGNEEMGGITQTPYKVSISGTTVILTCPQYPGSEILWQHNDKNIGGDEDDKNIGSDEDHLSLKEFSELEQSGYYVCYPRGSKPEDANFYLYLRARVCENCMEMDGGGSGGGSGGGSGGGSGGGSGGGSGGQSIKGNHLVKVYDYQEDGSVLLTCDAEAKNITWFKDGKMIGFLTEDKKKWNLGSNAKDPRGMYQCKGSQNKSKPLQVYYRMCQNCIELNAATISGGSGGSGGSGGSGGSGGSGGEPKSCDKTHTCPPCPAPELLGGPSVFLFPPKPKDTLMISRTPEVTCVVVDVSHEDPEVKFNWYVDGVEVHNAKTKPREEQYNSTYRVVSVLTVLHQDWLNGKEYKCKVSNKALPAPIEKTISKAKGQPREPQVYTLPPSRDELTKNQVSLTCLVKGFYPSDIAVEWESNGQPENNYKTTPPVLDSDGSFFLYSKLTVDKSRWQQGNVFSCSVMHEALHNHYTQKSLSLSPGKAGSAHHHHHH

Binder | Affinity gap KD hu/cyno DLL3 [1] | EC90, 72 hour cytotoxicity assay, purified T cells as effector cells, NCI-H82 target cells [2] [nM] | EC90, 72 hour cytotoxicity assay, purified T cells as effector cells, SHP77 target cells [2] [nM] | binding result [3] | EC90, 72 hour cytotoxicity assay (LDH release), non-stimulated PBMCs as effector cells, NCI-H82 target cells [4] [nM] | EC90, 72 hour cytotoxicity assay (LDH release), non-stimulated PBMCs as effector cells, SHP77 target cells [4] [nM] | Kd [5] [nM] | Kd [6] [nM] | EC50 (read off the curve) [7] [nM]
B1 | 1 | 0.27 | 0.02 | no binding (tested: 1 µM) | 0.9 | 1.5 | < 0.01 | 7 | –
B2 | – | – | – | – | – | – | – | – | ~1
B3 | – | – | – | – | – | – | – | – | ~1

From US20220251236A1 (Boehringer Ingelheim, published 2022)
